Laboratory results from paper PMC5966876.

Molecular target: cyclin T1 (UniProt O60563)
Assay: co-immunoprecipitation (anti-Flag IP, western blot quantification)
Details: 293T cells, lysed at 48 h posttransfection; 12% SDS-PAGE; parent: est. 100; read off a plot

Sequence of UniProt O60563 (O60563 whole entry): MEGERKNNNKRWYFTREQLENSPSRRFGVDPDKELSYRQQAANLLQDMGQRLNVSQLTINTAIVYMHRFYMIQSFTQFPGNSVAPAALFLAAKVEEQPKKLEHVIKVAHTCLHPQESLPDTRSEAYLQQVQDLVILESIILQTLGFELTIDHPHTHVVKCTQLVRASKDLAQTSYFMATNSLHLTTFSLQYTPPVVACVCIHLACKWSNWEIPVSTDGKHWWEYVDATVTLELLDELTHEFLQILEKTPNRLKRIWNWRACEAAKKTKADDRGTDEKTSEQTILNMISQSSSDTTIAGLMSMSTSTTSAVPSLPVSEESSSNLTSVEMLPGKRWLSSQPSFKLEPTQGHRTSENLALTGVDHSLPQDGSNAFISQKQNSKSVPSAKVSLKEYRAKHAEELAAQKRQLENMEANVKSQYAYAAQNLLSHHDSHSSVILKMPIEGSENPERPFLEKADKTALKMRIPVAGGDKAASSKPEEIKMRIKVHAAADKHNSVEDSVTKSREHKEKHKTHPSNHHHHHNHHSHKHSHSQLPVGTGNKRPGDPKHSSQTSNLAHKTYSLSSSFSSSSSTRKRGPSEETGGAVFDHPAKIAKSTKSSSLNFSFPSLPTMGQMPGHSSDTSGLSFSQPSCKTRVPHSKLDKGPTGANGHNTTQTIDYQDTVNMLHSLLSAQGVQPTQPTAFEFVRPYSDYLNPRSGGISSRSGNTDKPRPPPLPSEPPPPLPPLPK

Substance	percent of parent
Flag-tagged HIV-1 Tat (WT) S16D	20 % of WT Tat
Flag-tagged HIV-1 Tat (WT) S46A	45 % of WT Tat
Flag-tagged HIV-1 Tat (WT) S46D	22 % of WT Tat
Flag-tagged HIV-1 Tat (WT) S16A	48 % of WT Tat
